Assay results taken from US20150087814A1.

Legend:
FcγRIIb = FcγRIIb (UniProt P31994); assay: SPR (Biacore T100), antibody captured on protein A chip, receptor injected as analyte
FcγRIIIa-F158 = FcγRIIIa-F158 (UniProt P08637); assay: SPR (Biacore T100), antibody captured on protein A chip, receptor injected as analyte, 1:1 steady-state fit
Sequence of FcγRIIIa-F158 (P08637 17-208 limits assumed): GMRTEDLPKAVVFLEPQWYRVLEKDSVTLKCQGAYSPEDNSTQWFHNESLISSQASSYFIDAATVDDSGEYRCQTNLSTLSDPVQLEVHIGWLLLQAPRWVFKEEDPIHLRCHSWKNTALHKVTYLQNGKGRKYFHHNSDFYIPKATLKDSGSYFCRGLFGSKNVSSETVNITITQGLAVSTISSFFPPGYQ

Sequence of FcγRIIb (P31994 46-217 limits assumed): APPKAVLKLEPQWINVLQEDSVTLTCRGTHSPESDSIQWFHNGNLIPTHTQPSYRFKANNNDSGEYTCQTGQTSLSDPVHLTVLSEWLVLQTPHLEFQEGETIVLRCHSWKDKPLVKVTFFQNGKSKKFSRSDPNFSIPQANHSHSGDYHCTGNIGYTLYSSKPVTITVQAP

Kd (FcγRIIb): 2300 nM
Kd (FcγRIIIa-F158): 123 nM
Substance: nonfucosylated G2 glycoform of rituximab (10) (antibody)
